Measurements reported in article PMC3290749 (Oncogene, 2011).

Target: IgB-1 (UniProt P00533 25-645)
Test: ELISA

binding result: binds
B1: heparin-binding EGF like growth factor (ligand, UniProt Q99075 63-148, looked up)
chain: DLQEADLDLLRVTLSSKPQALATPNKEEHGKRKKKGKGLGKKRDPCLRKYKDFCIHGECKYVKELRAPSCICHPGYHGERCHGLSL
